Experimental data taken from the supplement of paper PMC10724198.
± gives the standard deviation of the averaged measurements.

Tested on: Saccharomyces cerevisiae
Experiment: protein stability index of tFT-peptide fusion (C-terminal peptide) (PSI (0-1 scale)); higher = more stable (slower turnover)
Details: temperature: 30 C
Method: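 MPS profiling in S. cerevisiae of the yeast C-terminome library: the last 12 aa of each annotated ORF are fused to the C-terminus of a sfGFP-mCherry timer, after a GGGS linker. Cells are FACS-sorted into 8 mCherry/sfGFP bins and deep-sequenced. PSI runs from 0 (unstable) to 1 (stable); wild type and das1Δ backgrounds, two technical replicates each.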

[1] = genetic background: das1 deletion

Sequence	protein stability index [1]	protein stability index (genetic background: wild type)
YEGPTLTEFEDA [CYB2 C-terminal 12 aa]	0.6905 ± 0.0043	0.703 ± 0.015
MKGYGFEVPSAN [COX17 C-terminal 12 aa]	0.6984 ± 0.0041	0.663 ± 0.0067
VFPETDSIFEPV [RAF1 C-terminal 12 aa]	0.733 ± 0.022	0.715 ± 0.0081
LSDDEEEEEEEE [RIX1 C-terminal 12 aa]	0.648 ± 0.048	0.645 ± 0.033
LKIVEKIIASEQ [YLR419W C-terminal 12 aa]	0.683 ± 0.013	0.711 ± 0.029
EDDITVVVVRVD [PTC7 C-terminal 12 aa]	0.646 ± 0.019	0.673 ± 0.02
SLYMNISYILLF [YGR073C C-terminal 12 aa]	0.44985 ± 0.00042	0.2066 ± 0.0013
SDGFANNRCQRK [YOR034C-A C-terminal 12 aa]	0.658 ± 0.0075	0.718 ± 0.051
TAFLNKVYKRSK [ERG20 C-terminal 12 aa]	0.692 ± 0.007	0.693 ± 0.043
TKRLRKNKCIIM [RHO4 C-terminal 12 aa]	0.743 ± 0.0024	0.702 ± 0.024
CLMVSFLLLFGV [OLI1 C-terminal 12 aa]	0.315 ± 0.0097	0.3088 ± 0.0016
YRCEKISQVLVI [CTF13 C-terminal 12 aa]	0.461 ± 0.036	0.495 ± 0.047
FFRYFTFSSSYW [YDR464C-A C-terminal 12 aa]	0.7002 ± 0.004	0.661 ± 0.022
ENFSSALQSPIF [YDL152W C-terminal 12 aa]	0.733 ± 0.0084	0.754 ± 0.055
NEPEVQPEAAAN [PUS1 C-terminal 12 aa]	0.679 ± 0.0086	0.69 ± 0.011
YIWKYYADSLFE [CSM2 C-terminal 12 aa]	0.736 ± 0.013	0.685 ± 0.043
KYFCDFLLDPEI [ECM14 C-terminal 12 aa]	0.741 ± 0.0083	0.719 ± 0.01

Sequence	protein stability index [1]	protein stability index (genetic background: wild type)
AKPAYHWQTRYR [KIN3 C-terminal 12 aa]	0.703 ± 0.021	0.665 ± 0.017
NTAGQKPTEYHY [APA2 C-terminal 12 aa]	0.7199 ± 0.0016	0.702 ± 0.019
VDSEGQIRYAKE [YCR087C-A C-terminal 12 aa]	0.673 ± 0.028	0.6705 ± 0.0015
NADDPSYYHYLS [CUL3 C-terminal 12 aa]	0.7059 ± 0.0024	0.68 ± 0.01
MQHRGWSSLMSL [YJR146W C-terminal 12 aa]	0.7031 ± 0.0016	0.6548 ± 0.0047
LSQFSNVRYLLQ [VPS70 C-terminal 12 aa]	0.7367 ± 0.0022	0.545 ± 0.0054
FQVVSKKKGRKH [SMY2 C-terminal 12 aa]	0.691 ± 0.017	0.72 ± 0.033
QESTLETTQKED [AFI1 C-terminal 12 aa]	0.703 ± 0.032	0.666 ± 0.018
KDGFVLYSYGQK [SKP2 C-terminal 12 aa]	0.69 ± 0.021	0.738 ± 0.034
LVAEATKKKRHT [DJP1 C-terminal 12 aa]	0.7115 ± 0.0067	0.6936 ± 0.0052
EWTKLYAKKKPE [UBC13 C-terminal 12 aa]	0.6853 ± 0.0049	0.711 ± 0.01
KNKKNKKKGKKK [CHS5 C-terminal 12 aa]	0.694 ± 0.048	0.696 ± 0.019
SISHPENKVLHK [YNL195C C-terminal 12 aa]	0.689 ± 0.0083	0.699 ± 0.0077
PFLEKLTLSGLL [CDC45 C-terminal 12 aa]	0.714 ± 0.0059	0.694 ± 0.0088
YLRFKENPEEKW [AIM29 C-terminal 12 aa]	0.711 ± 0.011	0.753 ± 0.086
SCGCGSSFDIEN [ISA2 C-terminal 12 aa]	0.704 ± 0.015	0.632 ± 0.0093
RSWDEFIGFKAY [CPA2 C-terminal 12 aa]	0.745 ± 0.03	0.615 ± 0.041
